Data on 139 substances can be found in the supplement of paper PMC12042874.

± gives the uncertainty stated by the source.

The nature of the data set: amyloid nucleation score (Sup35N fusion, yeast selection) (log enrichment); library NNK1; higher = more nucleation; inactive = no reads after selection. Put shortly:
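Nucleation score: DiMSum log enrichment of output over input reads, centred on the mode score of non-aggregating sequences. Only sequences with at least 100 input reads were kept. Reads came from Illumina sequencing of plasmid inserts before and after 7 days of growth at 30°C without adenine and uracil, in psi-negative yeast expressing Sup35N fused to peptides of 20 random codons after 24 hours of induction with 100 μM copper sulfate.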
FSTHSIWSLRVSNSVSLFNE registered an amyloid nucleation score of 0.178 ± 0.66. In turn, FSVNP yielded an amyloid nucleation score of 1.22 ± 0.69. As for FSYCAFHIMNQWVVFNYGGC, the amyloid nucleation score was 6.421 ± 0.06. For the substance FSYKIMTSGTCTTWRNAFFS, the amyloid nucleation score was -0.341 ± 0.33. FTDLFPEDRIWVPDYAGQRR had an amyloid nucleation score of 0.255 ± 1.4. As to FTESCRRGI, the amyloid nucleation score is 0.053 ± 0.4. As for FTRSQAV, the amyloid nucleation score entry was “inactive”.

Substance FTSPVIKY displayed an amyloid nucleation score of 0.089 ± 0.89. Regarding FTWIVFANSSAYFRTLQWSC, the amyloid nucleation score was determined as 0.032 ± 0.28. On to FVDFMQRNWGLVRVPCHVSL, for which the amyloid nucleation score entry is “inactive”.

For FVETS, the amyloid nucleation score was determined as 0.198 ± 0.29. On to FVEVVRTLEQI, for which the amyloid nucleation score is -0.485 ± 1. FVFKIWQSD displayed an amyloid nucleation score of 0.116 ± 0.58. FVGNPSRRWLCHCKFIAGGH: the amyloid nucleation score worked out at 0.137 ± 0.38. The substance FVLWIY registered an amyloid nucleation score of 0.14 ± 0.47. In turn, FVMFMPFSSHFS returned an amyloid nucleation score of 0.848 ± 0.58.

Substance FVQFTCSIRDYCA displayed an amyloid nucleation score of 0.033 ± 0.97. For FVQWFASSCCIRPRRYFVSR, the amyloid nucleation score was -1.42 ± 1.6. For FVRGDKLRTTGELSSAINRS, the amyloid nucleation score is -0.608 ± 0.57. In turn, FVSNGSYVGIS registered an amyloid nucleation score of -0.42 ± 0.51.

FVTANMTKLFTLWNWRLPGK had an amyloid nucleation score of 0.583 ± 0.29.

On to FVTKGVERCRVPEVSLPCLI, for which the amyloid nucleation score is -0.839 ± 1.2. For FWKGASINYS, the amyloid nucleation score result was “inactive”. With FWKTLQIFRTMVVN, the amyloid nucleation score was determined as 0.055 ± 0.9. Substance FWNINSSFFGLTNDTLVPNF registered an amyloid nucleation score of 0.79 ± 0.22. For FWVSCRSMCEIRVSLKLRLN the value was 0.719 ± 0.59; for FWYFMLNMVQPRY, -0.198 ± 0.87.

For the substance FYCMLSSSSNFPSGNDRAYD, the amyloid nucleation score was -0.341 ± 0.5.

On to FYFGTSDIPGFFNKSIYLVP, for which the amyloid nucleation score came out at 0.435 ± 0.38. As to FYFTHRFRITVRYSVLVMRT, the amyloid nucleation score stood at 1.69 ± 0.51. Take FYGFRCGYLDVSL: the amyloid nucleation score was -0.648 ± 0.33.

The substance FYLSYVIIYSSSIRCLSSCR showed an amyloid nucleation score of 0.388 ± 0.71. In turn, FYRNIIKINMMVLWISWGHV registered an amyloid nucleation score of 0.185 ± 0.79. In the case of FYTLKFMVKALTVKKGVCVV, the amyloid nucleation score entry is “inactive”. As for FYWMMANRNTQCVVCFAVLR, the figure is -0.754 ± 0.54; as for GAFGFITNRKRINCKLEDRD, -1.32 ± 2.4; as for GAIEASLVYRISNFKAGFAP, 1.91 ± 0.35. Substance GAIIFLSCGWSKCFCTLWVI showed an amyloid nucleation score of -0.381 ± 0.38. Substance GAKICIYELVLHEMRACVAR registered an amyloid nucleation score of -0.282 ± 0.96. GAPEVPIDYGLEASRNCSKG had an amyloid nucleation score of -0.61 ± 1.4. Turning to GAPLTENKFVLRNFVMGSAL, the amyloid nucleation score worked out at 0.159 ± 0.77. Regarding GASGGVTASLLKTRITVTWV, the amyloid nucleation score was -0.271 ± 0.79. GATSFFFSFRESNPLSNNHS displayed an amyloid nucleation score of 2.79 ± 0.099.

Turning to GAYLLPLSIWNLGPSNGR, the amyloid nucleation score was determined as 0.132 ± 0.44.

Consider GCHLVWFGVVYRQQWSFGVD, for which the amyloid nucleation score worked out at 0.563 ± 0.57.

On to GCMVFS, for which the amyloid nucleation score was 0.352 ± 0.76. As for GCNSMTRLLRGAWPPPYWRG, the figure is 0.274 ± 0.77.

Substance GCRTLHGGAVDKLYTWCHLA gave an amyloid nucleation score of 0.504 ± 0.92. For the substance GCSTYMVLMVGLGGGMLGGF, the amyloid nucleation score is 1.32 ± 0.26. In turn, GCTSGGLCIGPPRSV gave an amyloid nucleation score of 0.906 ± 1.

Substance GDAMASFPAACCGTRCCGFV gave an amyloid nucleation score of 0.41 ± 0.4. Substance GDKCLVTYCYLLGDGEGQQS displayed an amyloid nucleation score of -0.05 ± 0.43. The substance GDLGCVYSLFRSLFSSFTRS returned an amyloid nucleation score of 0.111 ± 0.35. As for GDNVFFMLERALFVVRNRRV, the amyloid nucleation score is -0.386 ± 0.86. Substance GDSRTLGLLCFYMKVG returned an amyloid nucleation score of -0.352 ± 0.41. With GDVLVSTNHIGFFKGPG, the amyloid nucleation score amounted to 1.91 ± 0.27.

Consider GEGSCGVSLSSMYLQWGARV, for which the amyloid nucleation score is -0.663 ± 0.83. Regarding GEKWMLEVASFICKSGFRVC, the amyloid nucleation score was -0.535 ± 1.7. With GELCMLSVW, the amyloid nucleation score came to 0.729 ± 0.79. Substance GESKHKQSNECTQCC registered an amyloid nucleation score of 1.11 ± 0.37. For GEVFFLVRSSVVCWISLICA the value was -0.109 ± 0.39; for GFELEAIKEYFGCWPSHYRF, “inactive”; for GFELVNVVGVIASLYNIIIV, 2.92 ± 0.2. Turning to GFFHGHIGLQHMCELQCCSG, the amyloid nucleation score result was “inactive”. As for GFFYEWRVYCPAWINALWWH, the figure is 0.193 ± 0.77. On to GFGPDQFITESDSFTSAFVS, for which the amyloid nucleation score came out at 0.125 ± 0.55.

GFGPS: the amyloid nucleation score is -0.275 ± 0.38. As for GFGSELRYYYMSRGMYRIRP, the figure is 0.089 ± 0.88.

The substance GFHSQG had an amyloid nucleation score of -0.172 ± 0.41. Take GFLICVFLSLVGYFGTCLRT: the amyloid nucleation score is -0.554 ± 0.97. As to GFLLGFCYPPQVQLVHVLTR, the amyloid nucleation score entry was “inactive”. For GFNLAW the value was -0.547 ± 0.56; for GFRSCRCVQGRANVFPYSMS, -0.103 ± 0.25. In turn, GFTGFNRIGVLVGWKCN gave an amyloid nucleation score of 0.763 ± 0.92. The substance GFTMSTEGVS gave an amyloid nucleation score of 0.781 ± 0.55. As for GFWVWSSSRRCLIVRFQVMG, the figure is -0.373 ± 0.56. GFYRGVTTIFCSVFI showed an amyloid nucleation score of 7.777 ± 0.07.

The substance GGGVMASDKPCTRVSLINKM gave an amyloid nucleation score of 0.161 ± 0.7. GGHFWWNTGQARVNWTIRLE returned an amyloid nucleation score of 0.123 ± 0.48. Substance GGILPLTCSFVRTSIDQIGG showed an amyloid nucleation score of -0.154 ± 0.41. Substance GGIYSLSMNIVWATGCL yielded an amyloid nucleation score of -0.361 ± 0.93. Substance GGLAGTTLKLRICF registered an amyloid nucleation score of -1.03 ± 1.9.

As to GGLDSNRQLVKFYTSWNYNC, the amyloid nucleation score was -0.057 ± 0.39. As to GGLWYTSTYSIYG, the amyloid nucleation score amounted to 2.42 ± 0.48. As to GGTNAGRCMYGGRDI, the amyloid nucleation score was 0.754 ± 0.7. Regarding GGTWPYTAVRWVIWRLWGEG, the amyloid nucleation score came out at 0.129 ± 0.64. Take GGYVWVTTSGPVFIQVMNMW: the amyloid nucleation score stood at 8.136 ± 0.06. As for GHQILDSCLANCYGGCLIAC, the figure is 0.652 ± 0.61; as for GHRINAYVVVVHLGSSGGGW, 2.07 ± 0.29. In turn, GHVWEQGRQLGSAPKDR gave an amyloid nucleation score of 0.1 ± 0.71. The substance GICDLLAHG showed an amyloid nucleation score of 0.322 ± 0.25.

Take GICWLISCGRIVAGSSEQYV: the amyloid nucleation score was found to be 0.924 ± 0.3. For the substance GIETRMDWEV, the amyloid nucleation score came out at 1.67 ± 0.52. As for GIKCTRFWQVPNRGDRV, the figure is -0.813 ± 0.48; as for GILFDLICIDLCFIGVLLKM, -0.406 ± 0.44; as for GIRCISLRKGHAGW, -1.65 ± 2.4. The substance GIRPEN displayed an amyloid nucleation score of -0.521 ± 0.49. On to GIRQLMAPYKPERWCWQRVG, for which the amyloid nucleation score was 0.344 ± 0.51. Consider GISFFGGLQASFLLPLASLL, for which the amyloid nucleation score was 0.413 ± 1.1. GISFY: the amyloid nucleation score stood at 1.28 ± 0.9.

Substance GISSCWLRRFHVAKRARPSG registered an amyloid nucleation score of -1.02 ± 2.7.

On to GISWSRGWSAFLKCDRRTGC, for which the amyloid nucleation score was 0.894 ± 0.8.

GITGSWINFRNCLTR gave an amyloid nucleation score of 0.774 ± 0.6. For GIVGSG the value was 2.29 ± 0.29; for GIYCLYFDILEVFLYTTTLS, 0.27 ± 0.42; for GKDLDMRRLWFGPAGIWWSK, 0.006 ± 0.59.

On to GKLSCYPCTGCL, for which the amyloid nucleation score was -0.109 ± 1.4. For the substance GKLTYLPRVKNLHLHFSFEN, the amyloid nucleation score is -0.169 ± 0.51. Consider GKNDLSMNIGELWASGRGVV, for which the amyloid nucleation score came to 2.18 ± 0.24. GKNFSTMAWP showed an amyloid nucleation score of -1.25 ± 2.7. Regarding GKPWSSCHENSLINMDHSDV, the amyloid nucleation score entry is “inactive”. Take GKRGSTQDEAKR: the amyloid nucleation score result is “inactive”. GLAGTLDPLTASDLLSRIGV showed an amyloid nucleation score of 0.182 ± 0.62. For GLDIFIWYMMVGIVYAFIYV the value was 2.38 ± 0.53. GLEGIRIGWSSLVSMCLWRG yielded an amyloid nucleation score of -0.016 ± 0.33. As to GLIRSSVEVMLHGVHRWDPY, the amyloid nucleation score turned out to be 0.037 ± 0.42. Turning to GLLSRNLVLRGLNSGNWPFG, the amyloid nucleation score entry is “inactive”. As for GLMLDLFVSSVYSIT, the figure is 0.655 ± 0.42; as for GLMSLYRQSSSLNRKAGWLT, 0.46 ± 0.64. On to GLNDYIKVFLYFDSVNRYLD, for which the amyloid nucleation score was -0.694 ± 1.1.

Consider GLPVGQGGELDY, for which the amyloid nucleation score stood at 2.32 ± 0.14. Turning to GLREMRNISAVFCFRLYICL, the amyloid nucleation score came out at 1.58 ± 0.14.

The substance GLVACQAMSNV showed an amyloid nucleation score of -0.138 ± 0.44. In the case of GLVGTRICSWIDFRSV, the amyloid nucleation score was -0.3 ± 1.5. GLVRDTTTMNVSLSVMSSAR: the amyloid nucleation score came out at 1.39 ± 0.84. For the substance GLVSSSLGGYVDADSYFECD, the amyloid nucleation score result is “inactive”.

Take GLVTRMSQTHPVSYNHITIL: the amyloid nucleation score is -0.072 ± 0.28.

Take GLWKGLRHSSSKWERPHIRQ: the amyloid nucleation score is 1.1 ± 0.62. For GLWYHA the value was 0.025 ± 0.62.

In turn, GMALKLFCALT came in with an amyloid nucleation score of 0.078 ± 0.89. For GMLGDVTVYLACRLLISRFL, the amyloid nucleation score entry was “inactive”.

GMLNIDSVPDTYGLSQPVVP yielded an amyloid nucleation score of -0.498 ± 0.57. Regarding GMLRVYWSMSSVFSGMCDRC, the amyloid nucleation score worked out at 3.94 ± 0.1. In turn, GMRLGTRSLQHQRWCAMLYL yielded an amyloid nucleation score of -1.37 ± 1.8.

GMRVRNRFVVSDSSYPPASH registered an amyloid nucleation score of -0.024 ± 0.26.

In turn, GMTCSQGSEWMLERGNRTEV gave an amyloid nucleation score of -0.294 ± 0.66. On to GMYLFECCYMGRRFSSWVGN, for which the amyloid nucleation score came out at 0.055 ± 0.47. The substance GMYRSVCDKVYRGCTIEVVV gave an amyloid nucleation score of 1.55 ± 0.54. GNAVYMNYFNVLDWNWSL returned an amyloid nucleation score of 4.966 ± 0.048.
